The text below walks through data of patent US20170107273A1 (JAPAN AS REPRESENTED BY DIRECTOR GENERAL OF NATIONAL …, published 2017).

* marks the point of attachment. Biotin = O=C1N[C@H]2[C@H](CS[C@H]2CCCCC(=O)*)N1 Bounds are passed on as bounds.

For test [1], the target named is E2 protein of the H77 strain (genotype 1a) on H77/JFH-1 HCVcc (Hepatitis C virus H77 strain (genotype …, UniProt P27958 384-746)). Briefly: cell-based or functional assay.
The target in test [2] is T1, E2 protein of the TH strain (genotype 1b) on TH/JFH-1 HCVcc (Hepatitis C virus TH strain (genotype …)).
T1 chain: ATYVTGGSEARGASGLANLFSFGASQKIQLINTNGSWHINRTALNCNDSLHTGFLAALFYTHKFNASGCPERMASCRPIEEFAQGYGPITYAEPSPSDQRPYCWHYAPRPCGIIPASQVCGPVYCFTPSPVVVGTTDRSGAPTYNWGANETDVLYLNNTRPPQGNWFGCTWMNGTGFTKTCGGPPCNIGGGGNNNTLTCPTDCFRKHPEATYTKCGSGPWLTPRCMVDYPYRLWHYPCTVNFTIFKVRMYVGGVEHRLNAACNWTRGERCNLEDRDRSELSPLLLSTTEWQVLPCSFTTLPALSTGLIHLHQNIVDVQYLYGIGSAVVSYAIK
The test is described as follows: cell-based or functional assay.

Test [3] deals with E2 protein of the S310 strain (genotype 3a) on S310/JFH-1 HCVcc (Hepatitis C virus S310 strain (genotype …)). The test is described as follows: cell-based or functional assay.
In test [4] the target is E2 protein on J6/JFH-1 HCVcc-8W (J6/JFH-1 HCVcc after 8 rounds of subculture infection in the presence of the …). The test is described as follows: cell-based or functional assay.
Test [5] deals with T2, QLINTNGSWHIN (SEQ ID NO: 37), TH E2 protein-derived peptide (Hepatitis C virus TH strain (genotype …, SMILES …)).
T2 construct: also called linear peptide of 12 amino acid residues
T2 peptide: Biotin-QLINTNGSWHING-NH2
The test is described as follows: ELISA on biotinylated 12-mer peptides on streptavidin plates. (An ELISA detects its analyte on a solid surface through an enzyme-linked reagent.)

Test [6] deals with T3, denatured TH E2-Fc protein (Hepatitis C virus TH strain (genotype …)).
T3 construct: also called denatured E2 protein; not shown: Fc domain of human immunoglobulin (human IgG) from vector CDM-mIL7R-Ig
T3 chain: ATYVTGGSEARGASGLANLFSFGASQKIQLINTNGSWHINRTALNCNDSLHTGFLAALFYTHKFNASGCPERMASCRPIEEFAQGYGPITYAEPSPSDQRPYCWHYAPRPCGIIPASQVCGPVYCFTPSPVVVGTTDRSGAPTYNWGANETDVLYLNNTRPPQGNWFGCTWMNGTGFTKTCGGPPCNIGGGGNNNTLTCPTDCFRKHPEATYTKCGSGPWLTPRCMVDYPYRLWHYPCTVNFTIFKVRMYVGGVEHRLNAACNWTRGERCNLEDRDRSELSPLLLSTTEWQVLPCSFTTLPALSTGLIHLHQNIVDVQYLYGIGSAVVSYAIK
The test is described as follows: ELISA, biotinylated antibody on immobilized denatured TH E2-Fc, avidin-HRP.

E2 protein of the H77 strain (genotype 1a) on H77/JFH-1 HCVcc (Hepatitis C virus H77 strain, sequence (P27958 384-746 limits assumed): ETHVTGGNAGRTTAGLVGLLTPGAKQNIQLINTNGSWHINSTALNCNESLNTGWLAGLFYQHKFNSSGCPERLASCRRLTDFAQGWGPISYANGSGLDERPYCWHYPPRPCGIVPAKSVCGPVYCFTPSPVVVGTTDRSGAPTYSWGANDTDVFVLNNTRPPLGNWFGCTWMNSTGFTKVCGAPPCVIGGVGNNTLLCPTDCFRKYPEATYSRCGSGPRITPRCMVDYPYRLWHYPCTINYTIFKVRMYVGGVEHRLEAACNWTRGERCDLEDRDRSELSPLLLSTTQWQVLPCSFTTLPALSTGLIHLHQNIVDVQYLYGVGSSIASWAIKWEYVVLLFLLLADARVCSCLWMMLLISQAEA

B1: e2d066 IgG (antibody, V domains shown)
VH: QVQLVQSGSDVKKPGSSVRVSCKASGGSFNSYAVNWVRQAPGQGLEWMGRIMPLVGLPEYAERFQERVTFTADKSTRTAYMDLTSLSSDDTAFYFCAVGVMKIFGEVPLNLDFWGQGTLVTVSS
VL: QAVLTQPSSVSGSPGQSITISCTGTSNDVGSYRYVSWFQQHPGKAPKLMIYDVNKRPSGVSSRFSGSKSGNTASLTISGLQAEDEANYYCSSYTRSSSLAFGGGTKLTVLS
notes: Human IgG1 made in CHO-K1 cells; also called biotinylated e2d066 IgG; ed2066 IgG
Consider B1, for which the “IC50 (µg/mL) of infection inhibiting activity against HCVcc (HCV core protein in Huh-7 cells)” value in test [1] came to 3.3 µg/mL; in test [2] it was 0.11 µg/mL; in test [3], 1.03 µg/mL. Also, in test [4], the “IC50 (µg/mL), 50% infection inhibiting concentration (infectious titer, focus count on Huh-7 cells)” value is under 0.01 µg/mL. Moreover, the binding result in test [5] was “no binding (tested: 1 µg/mL)”.

B2: e2d081 IgG (antibody, V domains shown)
VH: QVQLVQSGSDVKKPGSSVRVSCKASGGSFNSYAVNWVRQAPGQGLEWMGRIMPLVGLPEYAERFQERVTFTADKSTRTAYMDLTSLSSDDTAFYFCAVGVMKIFGEVPLNLDFWGQGTLVTVSS
VL: QSVLTQPPSVSAAPGQKVTISCSGTSSNIGDNYVSWYQHLPGSAPKLLIYDNNKRPSGIPDRFSGSKSGTSATLGITGLQTGDEADFYCGTWDSSLSSVVFGGGTKLTVLG
notes: Human IgG1 made in CHO-K1 cells; also called eE2d081 IgG
On to B2, for which the “IC50 (µg/mL) of infection inhibiting activity against HCVcc (HCV core protein in Huh-7 cells)” value in test [1] worked out at 0.66 µg/mL; in test [2], 0.05 µg/mL; in test [3], 0.5 µg/mL. For the same molecule, the “IC50 (µg/mL), 50% infection inhibiting concentration (infectious titer, focus count on Huh-7 cells)” value in test [4] worked out at 0.67 µg/mL. For the same molecule, the binding result in test [5] is listed as “no binding (tested: 1 µg/mL)”.

B3: e2d073 IgG (antibody, V domains shown)
VH: QVQLVQSGAEVKKPGSSVKVSCKASGASFNSFAIDWVRQAPGQGLEWMGRIIPIADVSDYAQKFQGRVTITADKSTRTAYMELTTLRSDDTAVYYCATSPMLTFGGPNAFGAFDVWGQGTMVTVSS
VL: not shown
notes: Human IgG1 made in CHO-K1 cells
As to B3, the entries for the “IC50 (µg/mL) of infection inhibiting activity against HCVcc (HCV core protein in Huh-7 cells)” value in test [1], in test [2] and in test [3] were over 30 µg/mL, 0.25 µg/mL and 10.4 µg/mL, respectively. Further, in test [4], the “IC50 (µg/mL), 50% infection inhibiting concentration (infectious titer, focus count on Huh-7 cells)” value turned out to be 59.4 µg/mL. Besides, the binding result in test [5] is reported as “no binding (tested: 1 µg/mL)”; in test [6] it was “no binding”.
